T1: ARF5 DNA-binding domain (ARF5-DBD) (UniProt P93024 120-274)
T1 sequence: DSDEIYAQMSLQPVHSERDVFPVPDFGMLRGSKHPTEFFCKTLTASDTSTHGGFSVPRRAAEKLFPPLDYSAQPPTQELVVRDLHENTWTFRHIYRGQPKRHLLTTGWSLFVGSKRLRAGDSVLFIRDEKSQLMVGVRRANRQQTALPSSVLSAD

B1: WOX4b (dsDNA)
DNA 1: AATCTGTCATTACCGACATAGT
DNA 2: ACTATGTCGGTAATGACAGATT
B2: WOX4a (dsDNA)
DNA 1: GCTCCATGCAGACATGAACATA
DNA 2: TATGTTCATGTCTGCATGGAGC

Biological target: T1, ARF5 DNA-binding domain (ARF5-DBD)
Assay: EMSA; EMSA: 12.5 pmol ARF5-DBD (doubled in competition), 200 fmol Cy5 probe, 10 mM Tris-HCl pH 7.4, 75 mM NaCl, 50 ng/ul poly(dI-dC), 1 mM DTT, 20 min room temperature; 6% native gel, 0.5x TBE
Conditions: protein: recombinant; tags: 6xHis-MBP removed by TEV protease; label: 5' Cy5 (both strands); blunt

Row | Binder | binding result
1 | B1 | no binding
2 | B2 | binds
